The target in one experiment is EphA4. Description: cell-based or functional assay.
Another experiment addresses EphB2. Kind of experiment: cell-based or functional assay.

pre-clustered EphrinA1-FC (Fc fusion): the One phase association Tau (GPhosEphA ratio fluorescence after Ephrin addition) with EphA4 was found to be 9.6.
Consider pre-clustered EphrinB2-FC (Fc fusion), for which the One phase association Tau (GPhosEphB ratio fluorescence after Ephrin addition) in the experiment with EphB2 turned out to be 9.78.

Source of the values: patent US9012617.
